Holding throughout (assay): cell_activity
Data set [1] has as its system TALENbar86 monomer 2 (artificial). The note with it: tobacco protoplasts, as pair with monomer 1, 13 nt spacer, foreign DNA pTIB235; printed half-site differs from full site as printed (AGCACGGTCAACTTCCCT).
Data set [2] relates to bar meganuclease (cleaving at bar position 479) (artificial). The following applies: tobacco protoplasts, targeted insertion with repair DNA pTCV225 (3/164 calli).
Data set [3] deals with TALENbar86 monomer 1 (artificial). The following applies: tobacco protoplasts, as pair with monomer 2, 13 nt spacer, foreign DNA pTIB235; 19.6 with pTCV224, 25.6 with pTCV225.
Data set [4] relates to TALENbar334 monomer 1 (artificial). The note with it: tobacco protoplasts, as pair with monomer 2, 12 nt spacer, foreign DNA pTIB235; 94.35 with pTCV224, 94.09 with pTCV225.
In data set [5] the test system is TALENbar334 monomer 2 (artificial). The note with it: tobacco protoplasts, as pair with monomer 1, 12 nt spacer, foreign DNA pTIB235; 94.35 with pTCV224, 94.09 with pTCV225.

With “ACGGAAGTTGACCGTGCT (double strand) [bar86 half-site 2]”, the activity in data set [1] was 6.25 % mutation.

In turn, “GGGAACTGGCATGACGTGGGTTTC (double strand) [bar meganuclease site]” had an activity in data set [2] of 1.8 % TSI.

“CTGCACCATCGTCAACCA (double strand) [bar86 half-site 1]” showed an activity in data set [3] of 6.25 % mutation.

As for “CCACGCTCTACACCCACC (double strand) [bar334 half-site 1]”, the activity in data set [4] is 76 % mutation.

“TGAAGCCCTGTGCCTCCA (double strand) [bar334 half-site 2]” displayed an activity in data set [5] of 76 % mutation.

Values taken from patent US20160053274.
